Substrate in series [1]: CCCCCCCCCCCC(=O)O
In words: purified protein. Conditions: pH 7.5.

Substrate in series [2]: CCCCCCCCCCCCCCCC(=O)O
In words: purified protein. Particulars: pH 7.5.

B1: FadD5 (Mycobacterium tuberculosis H37Rv) (protein)
chain: MTAQLASHLTRALTLAQQQPYLARRQNWVNQLERHAMMQPDAPALRFVGNTMTWADLRRRVAALAGALSGRGVGFGDRVMILMLNRTEFVESVLAANMIGAIAVPLNFRLTPTEIAVLVEDCVAHVMLTEAALAPVAIGVRNIQPLLSVIVVAGGSSQDSVFGYEDLLNEAGDVHEPVDIPNDSPALIMYTSGTTGRPKGAVLTHANLTGQAMTALYTSGANINSDVGFVGVPLFHIAGIGNMLTGLLLGLPTVIYPLGAFDPGQLLDVLEAEKVTGIFLVPAQWQAVCTEQQARPRDLRLRVLSWGAAPAPDALLRQMSATFPETQILAAFGQTEMSPVTCMLLGEDAIAKRGSVGRVIPTVAARVVDQNMNDVPVGEVGEIVYRAPTLMSCYWNNPEATAEAFAGGWFHSGDLVRMDSDGYVWVVDRKKDMIISGGENIYCAELENVLASHPDIAEVAVIGRADEKWGEVPIAVAAVTNDDLRIEDLGEFLTDRLARYKHPKALEIVDALPRNPAGKVLKTELRLRYGACVNVERRSASAGFTERRENRQKL
What is called Km is the concentration of substrate that gives half-maximal velocity. In the case of B1, the Km was 102 ± 8.55 µM in “purified protein [1]” and 89.83 ± 9.71 µM in the series “purified protein [2]”.

Source of the values: publication doi:10.1101/2024.10.29.620959v2.
